Columns and labels:
[1] = biological target: T1, Human serum albumin (HSA), denatured (Homo sapiens, UniProt P02768 P02768:25-609); assay: pulldown; 1% surfactant, 50 mM DTT or 25 mM TCEP, PBS pH 7.4, 40 ug/mL HSA; conditions: tags: none; denatured with 1% surfactant and reduced with DTT or TCEP; label: 5'-fluorescein (gel shift) or 5'-thiol-hexaethylene glycol on agarose (pull-down)
Protocol: The beads were equilibrated with 3 bed volumes of the binding buffer used during the pull-down prior to protein addition. Protein (40 μg/mL) was then added to the columns and placed on a nutating mixer for 45 min followed by 15 minutes of stationary incubation. The supernatant was then collected via centrifugation. The resin was then washed twice with 700 μL binding buffer, collecting the flow-through each time. Bound protein was then eluted using 300 μL 4 M urea with 0.1% surfactant and repeated to recover all bound protein. For each elution, the column was placed on a nutating mixer for 30 min. The A280 was then measured for each aliquot to determine the percent bound.

[2] = biological target: T1, Human serum albumin (HSA), denatured; assay: EMSA; tested in lane 1, not listed among binders; PBS pH 6, 50 mM DTT, 1% SDS; conditions: tags: none; denatured with 1% surfactant and reduced with DTT or TCEP; label: 5'-fluorescein
Protocol: (§1) Gel shift assays were then performed to determine which of these nucleic acids would bind to HSA under denaturing and reducing conditions. Specifically, 40 nmol of the fluorescein labeled DNA was incubated with 3 μM denatured HSA in PBS (pH=6) containing 50 mM fresh DTT and 1% SDS at room temperature for 1 hr. The samples were then run on an 8% nondenaturing gel (PBS pH=6, 0.1% SDS) at 100 V for 1 hour at 4° C. The gels were imaged using a Typhoon FLA 9500 gel imager using a 473 nm laser and an LPB filter. FIG. 12 is a representative gel showing the results of the gel shaft assays for the fluorescein labeled forms of the following nucleic acids: 35 (lane 1), 36 (lane 2), 40 (lane 3), H1 (lane 4), H2 (lane 5), H3 (lane 6) and H5 (lane 7).

[3] = biological target: T1, Human serum albumin (HSA), denatured; assay: EMSA; tested in lane 4, not listed among binders; PBS pH 6, 50 mM DTT, 1% SDS; conditions: tags: none; denatured with 1% surfactant and reduced with DTT or TCEP; label: 5'-fluorescein
Protocol: as §1

[4] = biological target: T1, Human serum albumin (HSA), denatured; assay: EMSA; tested in lane 5, not listed among binders; PBS pH 6, 50 mM DTT, 1% SDS; conditions: tags: none; denatured with 1% surfactant and reduced with DTT or TCEP; label: 5'-fluorescein
Protocol: as §1

[5] = biological target: T1, Human serum albumin (HSA), denatured; assay: EMSA; tested in lane 6, not listed among binders; PBS pH 6, 50 mM DTT, 1% SDS; conditions: tags: none; denatured with 1% surfactant and reduced with DTT or TCEP; label: 5'-fluorescein
Protocol: as §1

[6] = biological target: T1, Human serum albumin (HSA), denatured; assay: EMSA; tested in lane 7, not listed among binders; PBS pH 6, 50 mM DTT, 1% SDS; conditions: tags: none; denatured with 1% surfactant and reduced with DTT or TCEP; label: 5'-fluorescein
Protocol: as §1

[7] = biological target: T1, Human serum albumin (HSA), denatured; assay: pulldown; 1% SDS or Tween 80 with 50 mM DTT, or 1% Tween 80 with 25 mM TCEP, PBS pH 7.4; blank beads control; conditions: tags: none; denatured with 1% surfactant and reduced with DTT or TCEP; label: 5'-fluorescein (gel shift) or 5'-thiol-hexaethylene glycol on magnetic beads (pull-down)
Protocol: Pull-down. HSA (2 mg/mL from Gemini) was denatured in 1% surfactant (either Tween 80 or SDS) and 50 mM DTT in PBS (pH=7.4) for 1 hr. The binding buffers consisted of 50 mM freshly prepared DTT. The beads were equilibrated with 2 mL of the binding buffer used during the pull-down prior to protein addition. Protein (40 μg/mL) was then added to the columns and these were placed on a nutating mixer for 1 hr. The samples were then placed on the magnetic separation stand for 4 min, and the supernatant was removed. The beads were then washed twice with 1 mL binding buffer, collecting the supernatant each time. Bound protein was eluted using 300 μL of 4M urea with 0.1% surfactant and repeated to recover all bound protein. For each elution, the beads were incubated at 95° C. for 10 min. The beads were regenerated by rinsing with 1 mL of 1M NaCl followed by 2 mL of PBS. They were then stored in PBS in the refrigerator.
The aliquots were then concentrated using a 10 kDa Amicon spin filter. The samples were run on a NuPAGE™ Novex™ 4-12% Bis-Tris protein gel at 200 V for 40 min and stained with Spyro Ruby. The gels were visualized with a Typhoon FLA 9500 gel imager using a 473 nm laser and an LPG filter. FIG. 13 is a gel showing the results of the pull down (using nucleic acid 36) of HSA denatured with SDS (upper image) or Tween 80 (lower image) and reduced with DTT.
HSA binding with TCEP. […]

T1 sequence (P02768 25-609, one chain of several): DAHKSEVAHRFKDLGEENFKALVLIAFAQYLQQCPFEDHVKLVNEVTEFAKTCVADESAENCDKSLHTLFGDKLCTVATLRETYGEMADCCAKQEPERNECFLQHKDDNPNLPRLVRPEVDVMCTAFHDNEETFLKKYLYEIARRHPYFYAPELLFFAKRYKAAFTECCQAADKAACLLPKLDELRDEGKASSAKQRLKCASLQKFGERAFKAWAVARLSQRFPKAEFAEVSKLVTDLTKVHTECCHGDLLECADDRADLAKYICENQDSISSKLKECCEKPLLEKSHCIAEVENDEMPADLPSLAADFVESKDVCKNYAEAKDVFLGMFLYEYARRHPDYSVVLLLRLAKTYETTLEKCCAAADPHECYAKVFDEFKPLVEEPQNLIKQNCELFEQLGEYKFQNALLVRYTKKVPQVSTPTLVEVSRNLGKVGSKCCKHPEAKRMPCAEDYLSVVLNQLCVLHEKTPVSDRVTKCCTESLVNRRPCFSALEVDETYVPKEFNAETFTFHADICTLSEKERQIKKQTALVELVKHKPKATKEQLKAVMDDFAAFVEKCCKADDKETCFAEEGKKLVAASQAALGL

B1: P1 (ssDNA)
DNA: GCGCATACCAGCTTATTCAATTGCATAGTCATGCGGGAATAGTTTTCGATGAGGGCTATTGGAGGCCCCAGCAGATAGTAAGTGCAATCTCGGC
[1]
  binding signal: 12.7 % HSA bound

B2: 19 (ssDNA)
DNA: GCGCATACCAGCTTATTCAATTAACGTGTAGAGGTGTTCACGCACCACGCCGACTGTGGTTGACCCACAGTTAGATAGTAAGTGCAATCTCGGC
[1]
  binding signal: 10.3 % HSA bound

B3: 35 (ssDNA)
DNA: GCGCATACCAGCTTATTCAATTCGGTACGTGACGCAAAAAAGGTCGGGCGGCTGACATGGCACCTCGTCTAAAGATAGTAAGTGCAATCTCGGC
[2]
  binding result: no binding

B4: H1 (ssDNA)
DNA: GCGCATACCAGCTTATTCAATTACGCTCAGGACTAAAAATGGGCGTGACCATGAGCTCAGTATGGGCGTTACAGATAGTAAGTGCAATCTCGGC
[3]
  binding result: no binding

B5: H2 (ssDNA)
DNA: GCGCATACCAGCTTATTCAATTTCAAAGGCTGACCGGATGGGCTTCGTGACCGGGTACGCCACTGCCTCGTGAGATAGTAAGTGCAATCTCGGC
[4]
  binding result: no binding

B6: H3 (ssDNA)
DNA: GCGCATACCAGCTTATTCAATTGATCCATACAAGGGTAGGTTGACTTCCGCCCAAGGGGGCGAGGCCGTGAGATAGTAAGTGCAATCTCGGC
[5]
  binding result: no binding

B7: H5 (ssDNA)
DNA: GCGCATACCAGCTTATTCAATTAGGAACGCACCCGAGTGTTGCGCGAGCCAGTGGCTGGTTGGCCCGTATAAGATAGTAAGTGCAATCTCGGC
[6]
  binding result: no binding

B8: 36 (ssDNA)
DNA: GCGCATACCAGCTTATTCAATTCGGATAGACAACATGGGGAAGAACAGTGTCTAGTCGTGGGTTGCTCTGTAAGATAGTAAGTGCAATCTCGGC
[7]
  binding result: binds

B9: 40 (ssDNA)
DNA: GCGCATACCAGCTTATTCAATTCGGTAGTGCAGCGGCTTGAAATCAGCCGTGCTTTCGGGACGGAACTACTCAGATAGTAAGTGCAATCTCGGC
[1]
  binding signal: 10.3 % HSA bound

B10: H6 (ssDNA)
DNA: GCGCATACCAGCTTATTCAATTGCGTACCTAGGATTTACTTTCTCAAGATATTTGGAGTGACAAGTGGCATAAGATAGTAAGTGCAATCTCGGC
[1]
  binding signal: 10 % HSA bound
